Measurements reported in paper PMC9482650, “Quantitative fragmentomics allow affinity mapping of interactomes” (Nature Communications, 2022).

T1: DFNB31_2, Q9P202
T1 sequence (Q9P202 274-371, limits assumed, looked up): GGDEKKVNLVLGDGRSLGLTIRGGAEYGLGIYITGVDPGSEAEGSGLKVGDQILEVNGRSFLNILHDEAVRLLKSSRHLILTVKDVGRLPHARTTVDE

T2: MPDZ_5, O75970
T2 sequence (O75970 695-796, limits assumed, looked up): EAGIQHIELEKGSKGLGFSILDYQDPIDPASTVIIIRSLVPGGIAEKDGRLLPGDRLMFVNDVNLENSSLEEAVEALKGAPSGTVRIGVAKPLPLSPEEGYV

T3: GRIP1_2, Q9Y3R0
T3 sequence (Q9Y3R0 145-248, limits assumed, looked up): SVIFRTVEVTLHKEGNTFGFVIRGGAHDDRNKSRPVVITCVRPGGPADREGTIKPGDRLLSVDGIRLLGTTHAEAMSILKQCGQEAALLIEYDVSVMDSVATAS

T4: MPDZ_10, O75970
T4 sequence (O75970 1624-1722, limits assumed, looked up): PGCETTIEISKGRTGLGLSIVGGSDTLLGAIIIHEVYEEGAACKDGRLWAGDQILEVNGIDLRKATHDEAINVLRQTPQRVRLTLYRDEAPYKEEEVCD

T5: LRRC7, Q96NW7
T5 sequence (Q96NW7 1440-1537, limits assumed, looked up): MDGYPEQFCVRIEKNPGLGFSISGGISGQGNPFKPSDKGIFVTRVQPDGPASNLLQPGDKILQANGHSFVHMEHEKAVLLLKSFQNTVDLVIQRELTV

T6: RADIL, Q96JH8
T6 sequence (Q96JH8 971-1071, limits assumed, looked up): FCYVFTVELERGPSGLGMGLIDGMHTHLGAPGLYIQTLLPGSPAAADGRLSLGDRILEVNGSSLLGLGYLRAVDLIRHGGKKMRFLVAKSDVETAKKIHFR

T7: MPP6, Q9NZW5
T7 sequence (Q9NZW5 125-219, limits assumed, looked up): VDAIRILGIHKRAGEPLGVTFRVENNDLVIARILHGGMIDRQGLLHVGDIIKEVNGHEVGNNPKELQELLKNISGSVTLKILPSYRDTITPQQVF

T8: GRIP1_7, Q9Y3R0
T8 sequence (Q9Y3R0 999-1096, limits assumed, looked up): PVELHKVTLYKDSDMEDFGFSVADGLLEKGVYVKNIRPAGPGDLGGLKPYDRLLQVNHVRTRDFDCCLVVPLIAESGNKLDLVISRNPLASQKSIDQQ

T9: MPP7, Q5T2T1
T9 sequence (Q5T2T1 134-230, limits assumed, looked up): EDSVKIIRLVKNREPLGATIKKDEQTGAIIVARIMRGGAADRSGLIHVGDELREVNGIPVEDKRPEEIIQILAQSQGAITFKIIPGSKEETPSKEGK

T10: RAPGEF6, Q8TEU7
T10 sequence (Q8TEU7 525-625, limits assumed, looked up): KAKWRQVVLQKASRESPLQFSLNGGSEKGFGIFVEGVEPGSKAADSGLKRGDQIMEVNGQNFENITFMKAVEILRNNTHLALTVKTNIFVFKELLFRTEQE

B1: TBPL1, P62380 (peptide)
chain: FVFESRKEIL
B2: SDC3, O75056 (peptide)
chain: KPDKQEEFYA

molecular target: T1, DFNB31_2, Q9P202; assay: holdup assay; set-up: key: below the threshold = too weak to quantify, mostly under pKd 3.1 to 4; conditions: plain residues with an end cap or a label only (N-terminal biotin on a linker: ado-ado)

Binder | pKd
B1 | below the threshold
B2 | below the threshold

molecular target: T2, MPDZ_5, O75970; assay: holdup assay; set-up: key: below the threshold = too weak to quantify, mostly under pKd 3.1 to 4; conditions: plain residues with an end cap or a label only (N-terminal biotin on a linker: ado-ado)

Binder | pKd
B1 | below the threshold
B2 | below the threshold

molecular target: GIPC2, Q8TF65; assay: holdup assay; set-up: key: below the threshold = too weak to quantify, mostly under pKd 3.1 to 4; conditions: plain residues with an end cap or a label only (N-terminal biotin on a linker: ado-ado)
Sequence (Q8TF65 112-203): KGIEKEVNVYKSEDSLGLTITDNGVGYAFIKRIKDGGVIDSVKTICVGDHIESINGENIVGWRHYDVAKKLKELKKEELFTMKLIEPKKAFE

Binder | pKd
B1 | below the threshold
B2 | below the threshold

molecular target: HTRA2, O43464; assay: holdup assay; set-up: key: below the threshold = too weak to quantify, mostly under pKd 3.1 to 4; conditions: plain residues with an end cap or a label only (N-terminal biotin on a linker: ado-ado)
Sequence (O43464 355-458): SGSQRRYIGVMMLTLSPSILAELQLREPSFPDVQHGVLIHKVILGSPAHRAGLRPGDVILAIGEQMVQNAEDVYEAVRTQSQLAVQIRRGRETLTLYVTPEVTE

Binder | pKd
B1 | below the threshold
B2 | below the threshold

molecular target: T3, GRIP1_2, Q9Y3R0; assay: holdup assay; set-up: key: below the threshold = too weak to quantify, mostly under pKd 3.1 to 4; conditions: plain residues with an end cap or a label only (N-terminal biotin on a linker: ado-ado)

Binder | pKd
B1 | below the threshold
B2 | below the threshold

molecular target: Inadl_2, Q8NI35; assay: holdup assay; set-up: key: below the threshold = too weak to quantify, mostly under pKd 3.1 to 4; conditions: plain residues with an end cap or a label only (N-terminal biotin on a linker: ado-ado)
Sequence (Q8NI35 238-335): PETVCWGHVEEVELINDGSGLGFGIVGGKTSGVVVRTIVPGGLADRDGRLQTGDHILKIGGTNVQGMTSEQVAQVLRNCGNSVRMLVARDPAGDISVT

Binder | pKd
B1 | below the threshold
B2 | below the threshold

molecular target: T4, MPDZ_10, O75970; assay: holdup assay; set-up: key: below the threshold = too weak to quantify, mostly under pKd 3.1 to 4; conditions: plain residues with an end cap or a label only (N-terminal biotin on a linker: ado-ado)

Binder | pKd
B1 | below the threshold
B2 | below the threshold

molecular target: MAGI3_2, Q5TCQ9; assay: holdup assay; set-up: key: below the threshold = too weak to quantify, mostly under pKd 3.1 to 4; conditions: plain residues with an end cap or a label only (N-terminal biotin on a linker: ado-ado)
Sequence (Q5TCQ9 398-503): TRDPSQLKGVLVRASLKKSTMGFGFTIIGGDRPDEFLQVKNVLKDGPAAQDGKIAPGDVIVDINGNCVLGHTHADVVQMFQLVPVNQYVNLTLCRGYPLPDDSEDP

Binder | pKd
B1 | below the threshold
B2 | below the threshold

molecular target: GRIP2_6, Q9C0E4; assay: holdup assay; set-up: key: below the threshold = too weak to quantify, mostly under pKd 3.1 to 4; conditions: plain residues with an end cap or a label only (N-terminal biotin on a linker: ado-ado)
Sequence (Q9C0E4 648-740): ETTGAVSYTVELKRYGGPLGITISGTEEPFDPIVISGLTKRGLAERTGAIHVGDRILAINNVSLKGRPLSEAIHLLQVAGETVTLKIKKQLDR

Binder | pKd
B1 | below the threshold
B2 | below the threshold

molecular target: T5, LRRC7, Q96NW7; assay: holdup assay; set-up: key: below the threshold = too weak to quantify, mostly under pKd 3.1 to 4; conditions: plain residues with an end cap or a label only (N-terminal biotin on a linker: ado-ado)

Binder | pKd
B1 | below the threshold
B2 | below the threshold

molecular target: MAGI2_3, Q86UL8; assay: holdup assay; set-up: key: below the threshold = too weak to quantify, mostly under pKd 3.1 to 4; conditions: plain residues with an end cap or a label only (N-terminal biotin on a linker: ado-ado)
Sequence (Q86UL8 600-682): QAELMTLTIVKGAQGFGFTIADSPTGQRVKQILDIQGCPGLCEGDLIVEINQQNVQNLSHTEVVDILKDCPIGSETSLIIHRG

Binder | pKd
B1 | below the threshold
B2 | below the threshold

molecular target: FRMPD4, Q14CM0; assay: holdup assay; set-up: key: below the threshold = too weak to quantify, mostly under pKd 3.1 to 4; conditions: plain residues with an end cap or a label only (N-terminal biotin on a linker: ado-ado)
Sequence (Q14CM0 67-160): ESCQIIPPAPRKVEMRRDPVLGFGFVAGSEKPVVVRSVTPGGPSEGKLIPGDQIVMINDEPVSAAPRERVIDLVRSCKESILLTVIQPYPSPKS

Binder | pKd
B1 | below the threshold
B2 | 3.49

molecular target: MAGI2_5, Q86UL8; assay: holdup assay; set-up: key: below the threshold = too weak to quantify, mostly under pKd 3.1 to 4; conditions: plain residues with an end cap or a label only (N-terminal biotin on a linker: ado-ado)
Sequence (Q86UL8 915-1017): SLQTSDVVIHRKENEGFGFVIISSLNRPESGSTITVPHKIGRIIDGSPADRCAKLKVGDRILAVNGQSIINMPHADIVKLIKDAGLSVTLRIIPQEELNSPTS

Binder | pKd
B1 | below the threshold
B2 | below the threshold

molecular target: IL16_1, Q14005; assay: holdup assay; set-up: key: below the threshold = too weak to quantify, mostly under pKd 3.1 to 4; conditions: plain residues with an end cap or a label only (N-terminal biotin on a linker: ado-ado)
Sequence (Q14005 210-306): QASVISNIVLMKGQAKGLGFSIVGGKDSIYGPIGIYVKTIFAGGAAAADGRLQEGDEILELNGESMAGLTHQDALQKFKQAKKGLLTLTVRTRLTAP

Binder | pKd
B1 | below the threshold
B2 | below the threshold

molecular target: PDZRN4_1, Q6ZMN7; assay: holdup assay; set-up: key: below the threshold = too weak to quantify, mostly under pKd 3.1 to 4; conditions: plain residues with an end cap or a label only (N-terminal biotin on a linker: ado-ado)
Sequence (Q6ZMN7 213-318): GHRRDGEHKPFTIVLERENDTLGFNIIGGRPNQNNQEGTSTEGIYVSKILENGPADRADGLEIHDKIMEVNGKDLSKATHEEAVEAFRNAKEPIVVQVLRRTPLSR

Binder | pKd
B1 | below the threshold
B2 | below the threshold

molecular target: T6, RADIL, Q96JH8; assay: holdup assay; set-up: key: below the threshold = too weak to quantify, mostly under pKd 3.1 to 4; conditions: plain residues with an end cap or a label only (N-terminal biotin on a linker: ado-ado)

Binder | pKd
B1 | below the threshold
B2 | below the threshold

molecular target: T7, MPP6, Q9NZW5; assay: holdup assay; set-up: key: below the threshold = too weak to quantify, mostly under pKd 3.1 to 4; conditions: plain residues with an end cap or a label only (N-terminal biotin on a linker: ado-ado)

Binder | pKd
B1 | 3.53
B2 | 3.77

molecular target: LDB3, O75112; assay: holdup assay; set-up: key: below the threshold = too weak to quantify, mostly under pKd 3.1 to 4; conditions: plain residues with an end cap or a label only (N-terminal biotin on a linker: ado-ado)
Sequence (O75112 1-94): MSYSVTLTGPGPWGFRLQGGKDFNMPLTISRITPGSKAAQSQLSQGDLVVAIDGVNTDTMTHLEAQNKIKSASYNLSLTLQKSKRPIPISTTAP

Binder | pKd
B1 | below the threshold
B2 | below the threshold

molecular target: T8, GRIP1_7, Q9Y3R0; assay: holdup assay; set-up: key: below the threshold = too weak to quantify, mostly under pKd 3.1 to 4; conditions: plain residues with an end cap or a label only (N-terminal biotin on a linker: ado-ado)

Binder | pKd
B1 | below the threshold
B2 | below the threshold

molecular target: MAST1, Q9Y2H9; assay: holdup assay; set-up: key: below the threshold = too weak to quantify, mostly under pKd 3.1 to 4; conditions: plain residues with an end cap or a label only (N-terminal biotin on a linker: ado-ado)
Sequence (Q9Y2H9 962-1065): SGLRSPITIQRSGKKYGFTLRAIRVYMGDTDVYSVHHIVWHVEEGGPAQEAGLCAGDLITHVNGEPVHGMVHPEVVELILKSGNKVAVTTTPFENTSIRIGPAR

Binder | pKd
B1 | 4.21
B2 | 3.64

molecular target: DLG4_3, P78352; assay: holdup assay; set-up: key: below the threshold = too weak to quantify, mostly under pKd 3.1 to 4; conditions: plain residues with an end cap or a label only (N-terminal biotin on a linker: ado-ado)
Sequence (P78352 306-403): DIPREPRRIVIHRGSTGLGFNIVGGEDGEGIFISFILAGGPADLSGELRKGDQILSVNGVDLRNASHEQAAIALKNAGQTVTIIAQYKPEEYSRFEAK

Binder | pKd
B1 | below the threshold
B2 | below the threshold

molecular target: PTPN3, P26045; assay: holdup assay; set-up: key: below the threshold = too weak to quantify, mostly under pKd 3.1 to 4; conditions: plain residues with an end cap or a label only (N-terminal biotin on a linker: ado-ado)
Sequence (P26045 505-587): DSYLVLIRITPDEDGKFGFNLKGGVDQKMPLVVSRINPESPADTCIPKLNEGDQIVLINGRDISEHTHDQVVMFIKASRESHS

Binder | pKd
B1 | below the threshold
B2 | 3.8

molecular target: T9, MPP7, Q5T2T1; assay: holdup assay; set-up: key: below the threshold = too weak to quantify, mostly under pKd 3.1 to 4; conditions: plain residues with an end cap or a label only (N-terminal biotin on a linker: ado-ado)

Binder | pKd
B1 | below the threshold
B2 | below the threshold

molecular target: FRMPD2_3, Q68DX3; assay: holdup assay; set-up: key: below the threshold = too weak to quantify, mostly under pKd 3.1 to 4; conditions: plain residues with an end cap or a label only (N-terminal biotin on a linker: ado-ado)
Sequence (Q68DX3 1073-1166): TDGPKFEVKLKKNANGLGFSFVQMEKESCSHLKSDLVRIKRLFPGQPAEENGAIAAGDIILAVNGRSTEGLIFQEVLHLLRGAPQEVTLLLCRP

Binder | pKd
B1 | below the threshold
B2 | below the threshold

molecular target: Inadl_4, Q8NI35; assay: holdup assay; set-up: key: below the threshold = too weak to quantify, mostly under pKd 3.1 to 4; conditions: plain residues with an end cap or a label only (N-terminal biotin on a linker: ado-ado)
Sequence (Q8NI35 547-651): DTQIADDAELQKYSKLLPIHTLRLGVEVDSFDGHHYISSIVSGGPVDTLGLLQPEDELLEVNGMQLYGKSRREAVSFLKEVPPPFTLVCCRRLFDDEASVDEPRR

Binder | pKd
B1 | below the threshold
B2 | below the threshold

molecular target: T10, RAPGEF6, Q8TEU7; assay: holdup assay; set-up: key: below the threshold = too weak to quantify, mostly under pKd 3.1 to 4; conditions: plain residues with an end cap or a label only (N-terminal biotin on a linker: ado-ado)

Binder | pKd
B1 | below the threshold
B2 | below the threshold

molecular target: NHERF4_1, Q86UT5-2; assay: holdup assay; set-up: key: below the threshold = too weak to quantify, mostly under pKd 3.1 to 4; conditions: plain residues with an end cap or a label only (N-terminal biotin on a linker: ado-ado)
Sequence (Q86UT5 other isoform, or with tags, fused parts or gaps): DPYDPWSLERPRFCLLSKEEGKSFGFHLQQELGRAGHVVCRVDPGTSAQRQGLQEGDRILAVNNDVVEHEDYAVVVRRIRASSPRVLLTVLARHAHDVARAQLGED

Binder | pKd
B1 | 4.08
B2 | below the threshold

molecular target: CASK, O14936; assay: holdup assay; set-up: key: below the threshold = too weak to quantify, mostly under pKd 3.1 to 4; conditions: plain residues with an end cap or a label only (N-terminal biotin on a linker: ado-ado)
Sequence (O14936 487-570): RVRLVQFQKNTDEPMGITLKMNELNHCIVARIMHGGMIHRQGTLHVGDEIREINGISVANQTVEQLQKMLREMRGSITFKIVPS

Binder | pKd
B1 | below the threshold
B2 | below the threshold
